Here are results for two molecules from patent publication US20240358826A1 (ORIONIS BIOSCIENCES, published 2024).

The target in this experiment is human CD8 alpha (human, UniProt P01732 22-235). Description: cell-based or functional assay.
human CD8 alpha, sequence (P01732 22-235): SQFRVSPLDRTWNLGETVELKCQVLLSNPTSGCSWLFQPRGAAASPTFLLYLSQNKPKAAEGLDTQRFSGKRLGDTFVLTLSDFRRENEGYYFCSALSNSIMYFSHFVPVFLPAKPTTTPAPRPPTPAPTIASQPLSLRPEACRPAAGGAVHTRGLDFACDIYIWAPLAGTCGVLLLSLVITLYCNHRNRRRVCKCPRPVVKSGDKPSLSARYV

B1: IL1α delta 1-6_20GGS_hCD8 VHH 1CDA65_1GGS_9xhis (other)
chain: LSNVKYNFMRIIKYEFILNDALNQSIIRANDQYLTAAALHNLDEAVKFDMGAYKSSKDDAKITVILRISKTQLYVTAQDEDQPVLLKEMPEIPKTITGSETNLLFFWETHGTKNYFTSVAHPNLFIATKQDYWVCLAGGPPSITDFQILENQAGGSGGSGGSGGSGGSGGSGGSGGSGGSGGSGGSGGSGGSGGSGGSGGSGGSGGSGGSGGSQVQLQESGGGLVQPGGSLRLSCAASGSIFSINVMGWYRQTPGKERELVAKITNFGITSYADSAQGRFTISRGNAKNTVYLQMNSLKPEDTAVYYCNLDTTGWGPPPYQYWGQGTQVTVSSVDGGSHHHHHHHHH
Take B1: the “EC50, CD8+ HekBlue-IL-1β cells (SEAP)” value was about 0.3 ng/mL.

B2: hCD8 VHH 1CDA65_20GGS_IL1α delta 1-6_1GGS_9xhis (other)
chain: QVQLQESGGGLVQPGGSLRLSCAASGSIFSINVMGWYRQTPGKERELVAKITNFGITSYADSAQGRFTISRGNAKNTVYLQMNSLKPEDTAVYYCNLDTTGWGPPPYQYWGQGTQVTVSSVDGGSGGSGGSGGSGGSGGSGGSGGSGGSGGSGGSGGSGGSGGSGGSGGSGGSGGSGGSGGSLSNVKYNFMRIIKYEFILNDALNQSIIRANDQYLTAAALHNLDEAVKFDMGAYKSSKDDAKITVILRISKTQLYVTAQDEDQPVLLKEMPEIPKTITGSETNLLFFWETHGTKNYFTSVAHPNLFIATKQDYWVCLAGGPPSITDFQILENQAGGSHHHHHHHHH
On to B2, for which the “EC50, CD8+ HekBlue-IL-1β cells (SEAP)” value was about 0.3 ng/mL.
